From US20260070986A1 (AFFIMED, published 2026) come the findings set out here.

Assay [1] has as its target T1, recombinant human FcγRI (CD64), biotinylated (human, UniProt P12314 16-288, limits assumed, site-directed biotinylation at AviTag).
T1 construct: also called human CD64
The assay can be described thus: SPR (Biacore), 37 °C, biotin-captured human CD64 as ligand, steady-state plot; left-hand column, no heading on the sheet. The procedure:
FIG. 20: SPR interaction analysis of antibody binding to CD64 and murine CD16-2. […] Affinity parameters were evaluated for interaction with receptors using a Steady State Binding model.
For orientation: Surface plasmon resonance follows binding to a sensor surface in real time, without labels.

The target of assay [2] is T2, human CD16A (158F) on transfected CHO cells (cAg_34) (human, UniProt P08637 17-254).
T2 construct: Exact cell-anchored construct not described; also called huCD16A
T2 sequence (P08637 17-254 limits assumed): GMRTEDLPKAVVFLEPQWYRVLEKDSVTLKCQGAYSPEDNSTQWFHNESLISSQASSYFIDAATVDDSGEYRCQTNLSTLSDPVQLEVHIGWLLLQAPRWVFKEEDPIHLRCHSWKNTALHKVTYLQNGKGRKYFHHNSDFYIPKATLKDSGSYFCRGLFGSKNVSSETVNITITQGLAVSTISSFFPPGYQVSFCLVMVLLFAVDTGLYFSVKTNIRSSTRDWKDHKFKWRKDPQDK
Put plainly: flow cytometry on huCD16A-transfected CHO cells (cAg_34), one-site fit of MFI, mean of 3 experiments. As for the experimental part: (§1) After washing in FACS buffer, cells were incubated in 50 μL FACS buffer without antibodies or with titrated antibodies starting at a concentration of 100 μg/mL followed by ten 5-fold serial dilutions for 30 min on ice in the dark. After washing twice, cells were incubated with APC-conjugated goat anti-human IgG (H+L)-APC (Dianova, cat. 109-136-088) for 30 min on ice in the dark. […] After washing, binding was measured by flow cytometry and mean fluorescence intensities (MFI) of cell samples were calculated and corrected for background staining using control cells stained with secondary antibodies only.
(§2) Equilibrium dissociation constants (KD) of antibody binding were calculated by plotting MFI values and fitting a non-linear regression model for one-site binding to hyperbolic dose-response curves using GraphPad Prism.
A general note: In flow cytometry, cells or beads pass a laser one at a time.

Assay [3] concerns the target T3, recombinant human FcγRIIA (CD32A), biotinylated (human, UniProt P12318 34-218, limits assumed, site-directed biotinylation at AviTag).
T3 construct: also called human CD32A
T3 sequence (looked up): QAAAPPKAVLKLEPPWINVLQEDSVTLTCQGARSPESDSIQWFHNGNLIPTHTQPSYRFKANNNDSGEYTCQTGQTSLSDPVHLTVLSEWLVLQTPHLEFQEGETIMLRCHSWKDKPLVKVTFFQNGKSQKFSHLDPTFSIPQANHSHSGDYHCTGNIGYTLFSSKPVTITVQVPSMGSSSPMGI
The assay can be described thus: SPR (Biacore), 37 °C, biotin-captured human CD32A as ligand, steady-state plot; left-hand column, no heading on the sheet. As for the experimental part: (§3) FIG. 21: SPR interaction analysis of antibody binding to CD32. […] Affinity parameters were evaluated for interaction with receptors using a Steady State Binding model.

Assay [4] addresses T2, human CD16A (158F) on transfected CHO …. The assay can be described thus: flow cytometry on huCD16A-transfected CHO cells (cAg_34), one-site fit of MFI, experiment 3. As for the experimental part:
as §1, §2

The target in assay [5] is T4, recombinant human neonatal Fc receptor (FcRn), biotinylated (human, UniProt P55899 24-297, site-directed biotinylation at AviTag).
T4 construct: also called human FcRn
T4 sequence (P55899 24-297 limits assumed, form in doubt): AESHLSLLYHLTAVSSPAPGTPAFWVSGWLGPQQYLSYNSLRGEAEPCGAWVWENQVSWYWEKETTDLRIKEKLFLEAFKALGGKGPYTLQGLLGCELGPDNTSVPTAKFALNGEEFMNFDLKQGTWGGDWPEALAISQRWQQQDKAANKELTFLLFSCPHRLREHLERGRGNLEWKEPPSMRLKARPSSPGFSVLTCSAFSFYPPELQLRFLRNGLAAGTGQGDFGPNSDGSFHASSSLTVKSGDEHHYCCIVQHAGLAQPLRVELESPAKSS
Put plainly: SPR (Biacore T200), 37 C, pH 6.0, biotin-captured FcRn, steady-state affinity. As for the experimental part: (§4) Sensor chips were pre-equilibrated in HBS-P+ running buffer for 12 hours prior to the first measurement and the detectors were normalized using BIAnormalization solution (70% w/w glycerol) according to the manufacturer's instructions.
(§5) Interaction analysis of FcRn binding was performed at pH 6.0 in PBS/0.05% Tween 20; analytes and ligands were diluted in the same buffer. […] Ligand-free surfaces in FC1 and FC3 were used as references for response signals (FC2-1, FC4-3). Interaction analysis of CD64, CD32, and murine CD16-2 binding was performed in HBS-P+ buffer and analytes and ligands were diluted in the same buffer. Biotinylated Fcγ-Receptors were captured to a density of approximately 15 to 30 RU (FC2, FC3, and FC4) before increasing concentrations (500 nM to 4000 nM) of antibody were injected, using the single-cycle kinetic mode (FC1-FC4) at a flow rate of 40 μL/min for 100 seconds followed by dissociation for 90 seconds. A zero-concentration cycle and ligand-free surface in FC1 was used for referencing of response signals (FC2-1, FC3-1, and FC4-1). Sensor chip surfaces were prepared and regenerated before and after each measurement using Biotin Capture reagent (Biotin CAPture Kit, GE Healthcare) and 6 M guanidine-HCl, 0.25 M NaOH, respectively.
(§6) Binding affinities were determined by fitting data using the steady state affinity model of the Biacore T200 Evaluation software (v3.1).

Assay [6] has as its target T5, recombinant cynomolgus neonatal Fc receptor (FcRn), biotinylated (cynomolgus, UniProt Q8SPV9 24-297, limits assumed, site-directed biotinylation at AviTag).
T5 construct: also called cynomolgus FcRn
The description is as above. As for the experimental part: as §4, §5, §6

The target in assay [7] is T4, recombinant human neonatal Fc receptor …. Put plainly: SPR (Biacore), 37 °C, pH 6.0, biotin-captured human FcRn as ligand, steady-state affinity fit. As for the experimental part: Affinity parameters were evaluated for interaction with human FcRn, cynomolgus FcRn or murine FcRn using a Steady State Binding model (D-F).
Assay [8] deals with T6, recombinant human FcγRIIB (CD32B), biotinylated (human, UniProt P31994 43-217, limits assumed, site-directed biotinylation at AviTag).
T6 construct: also called human CD32B
T6 sequence (looked up): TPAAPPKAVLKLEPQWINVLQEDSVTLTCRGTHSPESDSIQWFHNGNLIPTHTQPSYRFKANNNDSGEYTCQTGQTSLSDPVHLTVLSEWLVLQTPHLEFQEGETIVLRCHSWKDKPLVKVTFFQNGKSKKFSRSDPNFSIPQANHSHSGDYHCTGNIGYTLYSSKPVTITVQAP
Put plainly: SPR (Biacore), 37 °C, biotin-captured human CD32B as ligand, steady-state plot; left-hand column, no heading on the sheet. As for the experimental part: as §3

Assay [9] concerns the target T2, human CD16A (158F) on transfected CHO …. Put plainly: flow cytometry on huCD16A-transfected CHO cells (cAg_34), one-site fit of MFI, experiment 1. The procedure:
as §1, §2

T5 sequence (Q8SPV9 24-297 limits assumed, form in doubt): as the sequence (P55899 24-297 limits assumed, form in doubt) above, with N39D, E44Q, G99S, S189G, S190N, L217M, S269T counted along it
T1 sequence (P12314 16-288 limits assumed): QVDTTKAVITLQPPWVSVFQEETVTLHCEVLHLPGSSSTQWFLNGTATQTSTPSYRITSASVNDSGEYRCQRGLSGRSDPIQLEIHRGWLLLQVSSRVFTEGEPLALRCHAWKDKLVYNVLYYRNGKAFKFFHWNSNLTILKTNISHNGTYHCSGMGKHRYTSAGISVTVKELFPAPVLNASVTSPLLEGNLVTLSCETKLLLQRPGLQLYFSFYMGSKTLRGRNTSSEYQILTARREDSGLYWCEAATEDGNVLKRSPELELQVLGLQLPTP

B1: scFv-IgAb_268 (CD123-1xCD16a1) (bispecific antibody)
heavy: QVQLQQSGAEVKKPGASVKVSCKASGYTFTDYYMKWVKQSHGKSLEWMGDIIPSNGATFYNQKFKGKATLTVDRSTSTAYMELSSLRSEDTAVYYCARSHLLRASWFAYWGQGTLVTVSSASTKGPSVFPLAPSSKSTSGGTAALGCLVKDYFPEPVTVSWNSGALTSGVHTFPAVLQSSGLYSLSSVVTVPSSSLGTQTYICNVNHKPSNTKVDKKVEPKSCDKTHTCPPCPAPEFEGGPSVFLFPPKPKDTLMISRTPEVTCVVVAVSHEDPEVKFNWYVDGVEVHNAKTKPREEQYNSTYRVVSVLTVLHQDWLNGKEYKCKVSNKALPAPIEKTISKAKGQPREPQVYTLPPSREEMTKNQVSLTCLVKGFYPSDIAVEWESNGQPENNYKTTPPVLDSDGSFFLYSKLTVDKSRWQQGNVFSCSVMHEALHNHYTQKSLSLSPGGGGGSGGGGSGGGGSGGGGSGGGGSGGGGSSYELTQPLSVSVALGQTARITCGGNNIGSKSVHWYQQKPGQAPVLVIYQDKKRPSGIPERFSGSNSGNTATLTISRAQAGDEADYYCQVWDDYIVLFGCGTKLTVLGGSGGSGGSGGSGGSGGSGGSQVQLVQSGAEVKKPGASVKVSCKASGYTFTNYYMQWVRQAPGQCLEWMGIINPSGGVTSYAQKFQGRVTMTRDTSTSTVYMELSSLRSEDTAVYYCARGSAYYYDFADYWGQGTLVTVSS
light: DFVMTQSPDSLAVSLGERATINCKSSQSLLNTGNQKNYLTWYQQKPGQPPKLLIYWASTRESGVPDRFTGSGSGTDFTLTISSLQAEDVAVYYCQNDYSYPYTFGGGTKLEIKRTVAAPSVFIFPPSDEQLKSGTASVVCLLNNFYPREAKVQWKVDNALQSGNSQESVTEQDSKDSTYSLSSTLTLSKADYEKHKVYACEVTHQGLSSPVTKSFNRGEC
notes: also called AFM28; CD123xCD16A scFv-IgAb_268
As a reminder, the Kd is the free concentration of one partner at which half of the binding sites on the other are occupied at equilibrium, for simple one-to-one binding. For the molecule B1, the binding result in assay [1], in assay [3] and in assay [8] was “no binding” each time. The Kd was 16.3 nM in assay [2]; 23.5 nM in assay [4]; 364 nM in [5]; 238 nM in [6]; 364 nM in [7]; 17.7 nM in assay [9].
